Data as given in paper PMC7343156, “Purification and characterization of a novel medium-chain ribitol dehydrogenase from a lichen-associated bacterium Sphingomonas sp” (PLoS ONE, 2020).

How the values were obtained:
purified protein [1] = substrate: NC(=O)c1ccc[n+]([C@@H]2O[C@H](COP(=O)(O)OP(=O)(O)OC[C@H]3O[C@@H](n4cnc5c(N)ncnc54)[C@H](O)[C@@H]3O)[C@@H](O)[C@H]2O)c1; test: purified protein; format: biochemical, Sphingomonas sp. PAMC 26621; settings: 10-160 mM D-ribitol, NAD+ 0.05-1 mM, 100 mM potassium phosphate pH 8.0, 25°C, no added metal, varied: cofactor
purified protein [2] = substrate: OC[C@@H](O)[C@@H](O)[C@@H](O)CO; test: purified protein; format: biochemical, Sphingomonas sp. PAMC 26621; settings: 10-160 mM D-ribitol, NAD+ 0.05-1 mM, 100 mM potassium phosphate pH 8.0, 25°C, no added metal

B1: SpRDH (Sphingomonas sp. PAMC 26621) (protein)
chain: MTQKTMTAVVCHGPKDYRVEEIAHPTAGALEFVIRVTACGICASDCKCWSGAKMFWGDDPWVKAPVVPGHEFFGVVDELGEGAGEHFGVAVGDRVIAEQIVPCERCRYCRSGQYWMCEVHNIFGFQRLVADGGMAQFMRLPRTSRVHLIPAEIPDDDAVIIEPLACALHTVRRGTIGFEDVVVIAGAGPIGLMMVQAARLQTPRKLVVIDMVPERLALATTFGADVVINPATDDALAIVHGLTDGYGCDVYIEATGSPAGVVQGLNLIRRLGRFVEFSVFGSDTTVDWSIIGDRKELDVRGAHLGPYCYPIAIDLLSRGLITSNGIVTHRFPLIQWAEAIAVADSLESIKVVLSPST
notes: native enzyme purified from Sphingomonas sp; PAMC 26621 grown on D-ribitol; untagged; identified by MALDI-TOF/TOF
B1 showed a Km (purified protein [1]) of 0.3 ± 0.02 mM, a kcat (purified protein [1]) of 29 ± 0.7 s⁻¹ and a Km (purified protein [2]) of 8.5 ± 1.2 mM. It also gave a kcat (purified protein [2]) of 29 ± 0.7 s⁻¹ and a kcat/Km (purified protein [2]) of 3500 M⁻¹ s⁻¹.
